Test results reported in patent publication US20160032398A1, “METHODS FOR TREATING CANCER” (COMBIMMUNE, INC., priority 2013, published 2016).

Key:
B16 melanoma tumors [1] = assay: Mouse model of melanoma treated with chemerin: tumor growth, with NK cell depletion (Example 5); type: in vivo, mice (C57BL/6); settings: FIG. 10
Procedure: (§1) A mouse model of melanoma was used to study the effect of an immunomodulator, chemerin (RARRES2) (Pachynski et al. J. Exp. Med. 209(8):1427-1435, 2012). Both control and chemerin-over expressing tumors were transplanted into mice. Intratumoral injections of chemerin were also evaluated. For all animal experiments, C57BL/6 or B6.129S7-Rag1tm1Mom/J (RAG1 KO) mice were purchased from the Jackson Laboratory. Murine B16F0 melanoma, L1.2 B lymphoma, and human 293 HEK lines were obtained from the American Type Culture Collection. Cell lines were grown in complete media consisting of RPMI 1640 supplemented with 10% FBS, sodium pyruvate, penicillin/streptomycin, and beta-mercaptoethanol.
(§2) To evaluate the effect of constitutively secreted chemerin on tumor growth, control or chemerin-expressing B16 melanoma tumor cells (0.5×10^6 or 1×10^6) were inoculated subcutaneously into mice. Tumor growth was measured every 2-4 d by calipers, and size was expressed as the product of perpendicular length by width in square millimeters. Mice were euthanized when tumor size reached about 400 mm^2 or when tumor sites ulcerated or at day 17 to evaluate for tumor-infiltrating leukocytes (TILs) by FACS.
(§3) To evaluate the effect of exogenous chemerin on tumor growth, tumor lines were inoculated as indicated. Recombinant, active, carrier-free murine chemerin (R&D Systems) was reconstituted in sterile PBS. […]

CD137 (TNFRSF9) [2] = assay: RT-qPCR of tumors for CD137 (Example 10); type: in vivo, C57BL6 mice; settings: after 17 days; chemerin tumors (n=5) vs control group (n=4); GAPDH reference; FIG. 12
Procedure: (§4) In order to determine the effect of chemerin on the TGS components in a mouse model, B16 melanoma tumors were implanted subcutaneously in C57BL6 mice. One cohort of mice received control tumors that received no treatment. The other cohort received tumors that were engineered to secrete the chemoattractant chemerin locally, thereby mimicking intratumoral injections of the chemoattractant.
(§5) After a period of 17 days, tumors were analyzed by RT-qPCR for LMO2 and CD137 (TNFRSF9), the key components of the TGS. […] Accordingly, a calculated TGS from the tumors would result in improved/lowered TGS score for the chemerin-treated group, whereas the control group that was not treated, and thus had fewer infiltrating NK and T cells, would have a worse/higher TGS score. GAPDH was used as the housekeeping/reference gene (not shown).

B16 melanoma tumors [3] = assay: Mouse model of melanoma treated with chemerin: tumor-infiltrating leukocytes by FACS (Example 5); type: in vivo, mice (C57BL/6)
Procedure: as §1, §2, §3

CD137 = assay: RT-qPCR of tumor biopsies for CD137 (Example 11); type: in vivo, mice
Procedure: (§6) In a separate experiment, three cohorts of mice were inoculated with B16 melanoma tumors. […] Each group comprised three mice. Tumors were allowed to grow until Day 9. […] Forty-eight hours after the single injection (Day 11), the tumors from all three groups were analyzed for infiltrating NK and T cells, as well as CD137 (TNFRSF9) expression.
Tumor biopsies from the three treatment groups were also analyzed by RT-qPCR to measure LMO2 and CD137 expression.
The TGS takes into account the relative expression levels of both CD137 and LMO2. Therefore, the ratio of relative expression of CD137 to LMO2 was determined.

B16 melanoma tumors [4] = assay: Chemerin-secreting B16 melanoma tumors: tumor-infiltrating leukocytes (Example 10); type: in vivo, C57BL6 mice; settings: tumors engineered to secrete chemerin vs control tumors; FIG. 9
Excerpt: as §4

B16 melanoma tumors [5] = assay: Chemerin-secreting B16 melanoma tumors: tumor size (Example 10); type: in vivo, C57BL6 mice; settings: chemerin (RARRES2) secreting tumors vs control tumors; p<0.05; FIG. 11
Excerpt: as §4
Clinically, the changes in the number of tumor-infiltrating leukocytes also correlated with tumor growth as well.

B16 melanoma tumors [6] = assay: Control, EGFR-expressing and chemerin-secreting B16 tumors: tumor-infiltrating leukocytes by FACS (Example 11); type: in vivo, mice; settings: chemerin-secreting B16 tumors; Day 11; FIG. 13B
Procedure: as §6

CD137 (TNFRSF9) [7] = assay: CD137 expression on tumor-infiltrating leukocytes by FACS (Example 11); type: in vivo, mice; settings: chemerin-secreting B16 tumors; vs control tumors treated with cetuximab; FIG. 14
Procedure: as §6

LMO2 = assay: RT-qPCR of tumors for LMO2 (Example 10); type: in vivo, C57BL6 mice; settings: after 17 days; chemerin tumors vs control; FIG. 12
Procedure: as §4, §5

B16 melanoma tumors [8] = assay: Control, EGFR-expressing and chemerin-secreting B16 tumors: tumor size (Example 11); type: in vivo, mice; settings: chemerin-secreting B16 tumors; Day 11; vs control tumors treated with cetuximab; FIG. 16
Procedure: as §6
The same tumors from the three groups were analyzed for tumor size (mm^2), a surrogate for clinical outcomes and survival, at pretreatment ([…]) and post-treatment (Day 11).

B1: chemerin: chemoattractant polypeptide that attracts cells including NK cells, T cells, macrophages and dendritic cell subsets; given recombinant or secreted by engineered tumors (protein, UniProt Q99969 21-157, looked up)
Retinoic acid receptor …: ELTEAQRRGLQVALEEFHKHPPVQWAFQETSVESAVDTPFPAGIFVRLEFKLQQTSCRKRDWKKPECKVRPNGRKRKCLACIKLGSEDKVLGRLVHCPIETQVLREAEEHQETQCLRVQRAGEDPHSFYFPGQFAFS
B16 melanoma tumors [1]; NK cells depleted with anti-Asialo GM1
  clinical efficacy on tumor growth after depletion of NK cells: abrogated the clinical efficacy
B16 melanoma tumors [1]; mice
  tumor growth: inhibit tumor growth
CD137 (TNFRSF9) [2]
  CD137 (TNFRSF9) expression by RT-qPCR: significantly increased
B16 melanoma tumors [3]; FIG. 8
  NK and T cells in murine tumors: increase in NK and T cells
B16 melanoma tumors [3]; FIG. 9
  infiltrating leukocyte subsets in murine tumors (activated NK and T cells): increased the representation of activated NK and T cells
CD137; chemerin treated tumors vs non-EGFR and cetuximab treated tumors, FIG. 19
  CD137:LMO2 ratio of relative expression: greater
CD137; tumors treated with chemerin, 48 hours time point, FIG. 17B
  relative CD137 expression (RT-qPCR): significantly higher
B16 melanoma tumors [4]
  tumor-infiltrating leukocytes (NK and T cells): increase in tumor-infiltrating leukocytes
B16 melanoma tumors [5]
  tumor size: significantly smaller than control tumors
B16 melanoma tumors [6]
  CD8+ T cells and NK cells of CD45+ TIL: small increases in both CD8+ T cells and NK cells
CD137 (TNFRSF9) [7]
  CD137 expression on total tumor-infiltrating leukocytes (FACS): increase in CD137 expression
LMO2
  LMO2 expression by RT-qPCR: not significantly changed
B16 melanoma tumors [8]
  tumor size: significantly smaller than control tumors
